From article PMC8615271

Molecular target: PDI and ERp72 (human)
Experiment: ITC; 280 µM P5 Cys55/58/190/193Ala mutant in the syringe (50 mM HEPES pH 7.2, 150 mM NaCl) titrated into 40 µM PDI or ERp72 in the cell (50 mM HEPES pH 7.2); 30 °C; one set of sites model

Kd: 2.4 to 4.1 µM
B1: Catalytically-inactive P5 (Cys55/58/190/193Ala) mutant (enzyme)
chain: LYSSSDDVIELTPSNFNREVIQSDSLWLVEFYAPWAGHAQRLTPEWKKAATALKDVVKVGAVDADKHHSLGGQYGVQGFPTIKIFGSNKNRPEDYQGGRTGEAIVDAALSALRQLVKDRLGGRSGGYSSGKQGRSDSSSKKDVIELTDDSFDKNVLDSEDVWMVEFYAPWAGHAKNLEPEWAAAASEVKEQTKGKVKLAAVDATVNQVLASRYGIRGFPTIKIFQKGESPVDYDGGRTRSDIVSRALDLFSDNAPPPELLEIINEDIAKRTCEEHQLCVVAVLPHILDTGAAGRNSYLEVLLKLADKYKKKMWGWLWTEAGAQSELETALGIGGFGYPAMAAINARKMKFALLKGSFSEQGINEFLRELSFGRGSTAPVGGGAFPTIVEREPWDGRDGELPVEDDIDLSDVELDDLGKDEL
